Patent US20230167423A1, “RING NUCLEASE” (priority 2019, published 2023)
Entries after “also recorded” stand apart in the source; their conditions may differ. Like-named read-outs stand apart in the source and are kept apart here.

Tests used:
[1] = test system: cA4; assay: Radiolabelled cA4 cleavage assay, single turnover kinetics; format: biochemical; conditions: for cA4 cleavage / ring nuclease activity in vitro: 37° C., recombinant protein (FIG. 5); for cA4 cleavage single turnover rate constant: 50° C., 4 μM protein dimer, Csx1 buffer
[2] = test system: HEPN ribonuclease StCsm6′; assay: cA6 degradation, deactivation of cA6-activated HEPN ribonuclease StCsm6′; format: biochemical, S. thermophilus
Description: Ring nuclease (Tsac_2833, 2 μM dimer) was incubated with the indicated concentration of cA6 for 60 min at 37° C. […] Control c1 is RNA in the absence of protein, c2 is RNA incubated with Tsac_2833 and c3 is RNA incubated with StCsm6′ in the absence of cA6 activator. vRN—ring nuclease.
Ring nuclease (SIRV1_114a, 2 μM; labelled “vRN”) was incubated with the indicated concentration of cA6 for 20 or 60 min at 70° C. and cooled on ice for 5 min.
When investigating cA6 degradation capacity, THSA-485A Tsac_2833 (2 μM dimer) was incubated with cA6 (50-0.5 μM) for 20 min or 60 min at 37° C. prior to adding 0.5 μM dimer StCsm6′ and 50 nM radio-labelled RNA A1. Reactions were then left to proceed for 60 min at 37° C. before quenching reactions by phenol-chloroform extraction and visualising RNA degradation by phosphor imaging following denaturing PAGE.
A deactivation assay was carried out using the S. thermophilus HEPN ribonuclease StCsm6′, a ribonuclease activated by cA6.

[3] = test system: recombinant type III CRISPR system from Mycobacterium tuberculosis; format: cell-based, Escherichia coli
[4] = test system: cA4; assay: Substrate specificity of ring nuclease by TLC: cA4; format: biochemical; conditions: multiple-turnover, 49 μM protein, 450 μM substrate, 70° C.
Description: (§1) The reactions were then deproteinised by phenol-chloroform extraction followed by chloroform extraction and products separated by TLC. Substrate degradation was visualised and imaged under short-wave ([…]) UV light.

[5] = test system: cyclic-di-GMP; assay: Substrate specificity of ring nuclease by TLC: cyclic-di-GMP; format: biochemical; conditions: multiple-turnover, 49 μM protein, 450 μM substrate, 70° C.
Description: as §1

[6] = test system: cA4; assay: cA4 degradation capacity: Csx1 activation by HPLC-purified cA4 and deactivation by ring nuclease; format: biochemical; conditions: ring nuclease 2 μM dimer, Csx1 0.5 μM dimer
Description: FIG. 4. […] RNA A1 is not a target of Csm. Each set of three lanes after the control (c) reaction with Csx1 and labelled non-target RNA alone, is first in the absence and then the presence the ring nuclease SIRV1 gp29 (labelled “vRN”) or S. solfataricus cellular ring nuclease (cRN) Sso2081 (2 μM dimer), respectively. Whereas the SIRV1 gp29 ring nuclease is able to degrade all cA4 generated with up to 50 nM RNA A26 target, the cellular ring nuclease deactivates Csx1 and protects substrate RNA from degradation only when less than 5 nM A26 RNA target is used to initiate cA4 synthesis. Bottom panel is a phosphor image of thin-layer chromatography with reactions as above but visualizes cA4 production, by a-ATP incorporation, in the presence of indicated amounts of A26 RNA target and absence or presence of either SIRV1 gp29 or cellular ring nuclease. Csx1 deactivation correlated with complete cA4 degradation. • b) Denaturing gel electrophoresis visualising activation of Csx1 (0.5 μM dimer) by indicated amounts of HPLC-purified cA4 (BIOLOG Life Sciences) and its subsequent deactivation when either SIRV1 gp29 ring nuclease (“vRN”) or cellular ring nuclease (2 μM dimer) is present to degrade cA4. The SIRV1 gp29 ring nuclease degrades 100-fold more cA4 than the cellular ring nuclease. Control reactions (c) show RNA incubated with SIRV1 gp29 or Csx1 in the absence of cA4, respectively. […]

[7] = test system: cA6; assay: Substrate specificity of ring nuclease by TLC: cA6; format: biochemical; conditions: multiple-turnover, 49 μM protein, 450 μM substrate, 70° C.
Description: as §1

[8] = test system: cyclic-AMP; assay: Substrate specificity of ring nuclease by TLC: cyclic-AMP; format: biochemical; conditions: multiple-turnover, 49 μM protein, 450 μM substrate, 70° C.
Description: as §1

[9] = test system: cyclic-CAMP; assay: Substrate specificity of ring nuclease by TLC: cyclic-CAMP; format: biochemical; conditions: multiple-turnover, 49 μM protein, 450 μM substrate, 70° C.
Description: as §1

[10] = test system: cyclic-di-AMP; assay: Substrate specificity of ring nuclease by TLC: cyclic-di-AMP; format: biochemical; conditions: multiple-turnover, 49 μM protein, 450 μM substrate, 70° C.
Description: as §1

[11] = molecular target: T1, HEPN family ribonuclease Csx1 (Saccharolobus solfataricus, UniProt Q97YD5); assay: Deactivation of HEPN nuclease Csx1 in coupled assay with Csm complex and A26 RNA target; format: biochemical, Sulfolobus solfataricus
T1 sequence (Q97YD5 1-377): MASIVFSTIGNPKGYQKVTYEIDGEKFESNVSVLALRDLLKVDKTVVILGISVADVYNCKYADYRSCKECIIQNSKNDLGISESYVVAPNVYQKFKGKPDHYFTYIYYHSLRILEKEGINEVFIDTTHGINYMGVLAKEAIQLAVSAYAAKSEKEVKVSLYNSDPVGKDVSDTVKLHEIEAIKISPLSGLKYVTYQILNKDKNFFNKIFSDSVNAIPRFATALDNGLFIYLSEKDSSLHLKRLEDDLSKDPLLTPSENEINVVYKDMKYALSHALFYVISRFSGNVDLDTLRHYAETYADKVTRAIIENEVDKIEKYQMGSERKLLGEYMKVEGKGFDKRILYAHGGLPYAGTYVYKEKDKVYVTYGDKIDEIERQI
Description: FIG. 4. Comparison of the kinetics of the ring nucleases disclosed herein and cellular ring nucleases in deactivating the type III CRISPR defence. • a) Top panel is a phosphor image of denaturing polyacrylamide gel electrophoresis showing activation of HEPN family ribonuclease Csx1 (0.5 μM dimer) and consequent radioactively labelled RNA A1 cleavage in a coupled assay containing type III Csm CRISPR complex carrying A26 CRISPR RNA when challenged by indicated amounts of A26 RNA target to initiate cA4 synthesis. RNA A1 is not a target of Csm. Each set of three lanes after the control (c) reaction with Csx1 and labelled non-target RNA alone, is first in the absence and then the presence the ring nuclease SIRV1 gp29 (labelled “vRN”) or S. solfataricus cellular ring nuclease (cRN) Sso2081 (2 μM dimer), respectively. Whereas the SIRV1 gp29 ring nuclease is able to degrade all cA4 generated with up to 50 nM RNA A26 target, the cellular ring nuclease deactivates Csx1 and protects substrate RNA from degradation only when less than 5 nM A26 RNA target is used to initiate cA4 synthesis. Bottom panel is a phosphor image of thin-layer chromatography with reactions as above but visualizes cA4 production, by a-ATP incorporation, in the presence of indicated amounts of A26 RNA target and absence or presence of either SIRV1 gp29 or cellular ring nuclease. […]

B1: THSA-485A Tsac_2833: DUF1874 ring nuclease from Thermoanaerobacterium bacteriophage THSA-485A, SEQ ID NO. 6 (protein, listed as Archael virus)
chain: MFIANAFSLQMLSQFPAHIDIEEVATSAVAKLDLQSAIGHADTAVVLSGILGKDIESNRVNVQLQPGDSLIVAQLMGGRLPEGSTTLPAGFSFKFFKVTVQA
cA4 cleavage / ring nuclease activity in vitro [1]: cleave cA4 rapidly
cA6 degradation: protection of substrate RNA from StCsm6′ ([2]; 2 μM dimer pre-incubated with cA6 at 37° C.): protection of the substrate RNA; also recorded: Clear inhibition of substrate RNA cleavage
effect on cA4-mediated type III CRISPR immunity (plasmid transformation) [3]: overcomes type III CRISPR immunity
effect on cA4-mediated type III CRISPR immunity (plasmid transformation) ([3]; listed as Tsac_2833): effective in neutralising a cA4-mediated CRISPR defence; also recorded: reduced immunity for cA4-mediated CRISPR defence

B2: SIRV1 gp29: DUF1874 ring nuclease, ORF 114a of Sulfolobus islandicus rudivirus 1 (SIRV1), SEQ ID NO. 7 (protein, listed as Archael virus)
chain: MNKVYLANAFSINMLTKFPTKVVIDKIDRLEFCENIDNEDIINSIGHDSTIQLINSLCGTTFQKNRVEIKLEKEDKLYVVQISQRLEEGKILTLEEILKLYESGKVQFFEIIVD
cA4 cleavage single turnover rate constant [1]: 7 ± 1 min⁻¹
cA4 cleavage single turnover rate constant ([1]; listed as SIRV1 gp29 (orf 114a)): 7.4 min⁻¹
cA6 degradation: protection of substrate RNA from StCsm6′ ([2]; 2 μM pre-incubated with cA6 for 20 or 60 min at 70° C.): clear inhibition of substrate RNA cleavage
cA6 degradation: protection of substrate RNA from StCsm6′ ([2]; 2 μM pre-incubated with cA6 for 20 or 60 min at 70° C., listed as SIRV1_114a): protection of the substrate RNA
degradation of cA4 (TLC) [4]: rapidly degrades; also recorded: specific for the degradation
degradation of cyclic-di-GMP (TLC) [5]: does not degrade; also recorded: does not recognise
amount of cA4 degraded relative to cellular ring nuclease [6]: 100 fold
degradation of cA6 (TLC) [7]: rapidly degrades; also recorded: specific for the degradation
degradation of cyclic-AMP (TLC) [8]: does not degrade
degradation of cyclic-CAMP (TLC) [9]: does not degrade; also recorded: does not recognise
degradation of cyclic-di-AMP (TLC) [10]: does not degrade; also recorded: does not recognise
de-activation of cA4-activated HEPN nuclease Csx1 compared with cRN Sso2081 ([11]; over a range of RNA and cA4 concentrations (FIG. 4)): far more effectively
amount of A26 RNA target up to which all generated cA4 is degraded / Csx1 deactivated ([11]; ring nuclease 2 μM dimer, Csx1 0.5 μM dimer, 70° C.): up to 50 nM

B3: B. subtilis yddf: DUF1874 protein encoded by gene yddF of Bacillus subtilis, prophage origin, SEQ ID NO. 15 (protein, listed as Archael virus)
chain: MEIAFLNSLVVTSPGFYKAEKITLDEVKQWLKHYDGRYKSFIGHKSTAQFLQKLLGIRIEQNRKTFRHMKYQKAICFSLYERYPENVLLTQRDLEKARYQFYLLTRLD
cA4 cleavage / ring nuclease activity in vitro [1]: cleave cA4 rapidly

B4: Crenothrix polyspora: DUF1874 protein, sequence WP_087145848.1 from the bacterium Crenothrix polyspora, SEQ ID NO. 16 (protein, listed as Crenothrix polyspora)
chain: MTLFIINAPILTSYGDWRFEGPLSIDKTRKLLREGFTSAIGHAASAEMLARLLAMDIPVNRIAITMEAGDRALILRLLQRLPEGKVLNHHEMMATPFELALLTKLK
cA4 cleavage / ring nuclease activity in vitro [1]: cleave cA4 rapidly
